Laboratory results from the DeepSol protein solubility set.

assay: soluble on expression in E. coli; label from the status in PepcDB or PDB records

| Sequence | soluble on expression in E. coli |
| --- | --- |
| TDPDCDRIGVLVKNKSGEYKVLTGNQTGVLLTHYIISSLKDTGKLPANGAVIKTIVTSEMTRKITEDYDMKLIDVLTGFKYIGEKIKEFEETNSNTYLFGFEESYGCLAGTFVRDKDAVVAATLVCEMALYYKNKGLSLDDALNELYEKYGF | not soluble |
| MMHIAHSAPNHTVEGLYRAHNVWLTTWLRRRLGCPHSAADLAQDTFVKVLGARDTAQIIEPRAFLTTIAKRVLCNHYRRQDLERAYYQALAELPECAAPSEEERAIILETLVELDQLLDGLPALVKRAFLMSQVDGLSHGQIAAELDISIATVKRHLNKAALRCYFAL | not soluble |
| HRIPAYTLTDQNGDAFKSTAYDSSFKVYDFVFTRCGSICPEMTTQMIRVQEAFKHDKDVVLISLTVDPEHDSSEVLQRYAKQYNAIPGKWYFLTGEKDTIYTLGQRQFFLTAKQNEEDLTDFLHSERIVLVDKNGWIRGYYTGTNEKDVDRLITELKVLQKIERDAKRK | not soluble |
| AHHHHHHGSNRKLDEFLGSNDPPATKEENQKVKKKQRLRATNLDEFLPEDHINFFKNLRIGSKKIARKKIEEL | not soluble |
| VRSSSRTPSDMPVAHVVANPQAEGQLQWKNAGANALLANGVELRDNQLVVPSEGLYLIYSQVLFSGQGCPSTHVLLTHTISRIAVSYQTPVNLLSAIRSPCQRETPEGAEANPWYEPIYLGGVFQLEPGDRLSAEINRPDYLDFASTGQVYFGIIAL | soluble |
| MGSDKIHHHHHHMKNLLITVFFLSLTLQLSAETGGSNAVIVEKTTASPAEKTPVYWQKMADGMSQALIKHFWGANFKGYENRFYFNYGSDLSNMTTNHYWPQAHAMDVMVDAYMRTGSKQYLNIYPLWWEGAPKFNFAGREEDPWWNVFVDDMEWIALAQIRMFESTKNTKYLKKARQTYDDWVWSTWGPEDEAPWFGGITWKTDVAKSKNACSNGPAALIAARLYNFYDAMGKKAGKPKQAYLNEAIKIYTWEKNNLFDRQTGAVYDSMNGEGKITKWVFSYNSGTFLGAAHELYKITGDKQYLADAVKAANFVIDHLSTNEGVLSDAEGGDGGLFHGIFFRYFVKLINDPALDSANYNKFRDYITHCATVMAEQGVNQKTMLYSGRWRKAPADDESVGLTSHLTGCMLMEAMCVLKHR | not soluble |
| MAMVSEFLKQAWFIDNEEQEYIKTVKGSKGGPGSAVSPYPTFNPSSDVEALHKAITVKGVDEATIIEILTKRTNAQRQQIKAAYLQEKGKPLDEALKKALTGHLEEVALALLKTPAQFDADELRAAMKGLGTDEDTLNEILASRTNREIREINRVYKEELKRDLAKDITSDTSGDYQKALLSLAKGDRSEDLAINDDLADTDARALYEAGERRKGTDLNVFITILTTRSYPHLRRVFQKYSKYSKHDMNKVLDLELKGDIENCLTVVVKCATSKPMFFAEKLHQAMKGIGTRHKTLIRIMVSRSEIDMNDIKACYQKLYGISLCQAILDETKGDYEKILVALCGGD | soluble |
| MSLENVDPFDIIRQFRSVIAKTSLQASSNIEGLDTVWNSDLVLEANFWHLVEILLSFRTSQEFLDKESSISSKPYNSSIIFEKELLQKDKNLYQIWLIIVWIEGNFPFVEKPSNIPSSKWTNTLVTSGLMSSDLDYPLRDCSVVINDKDKADDHVFYKYVYELLLCGNYDQIFEECKLSDNITLNMIMCGMQEYVDPSIDVQLKDEFEVQQGVKKHSLWRRAVYSLSQNDKLDKYERAIYSYLAGDIPNDEVLQTLNWDSELLVYLNQILKIEVENYLLQNGKVNNDELILSLPSNTMDLQSILNLLSAKHPEESEHPIRVLIGSVMLNTIPSVLHSSVSMLMNVVTGIENDNDIFGEPYLLRVVTHMTIFLEILNPGTISESDKTKLITAYISILKSQELYDLIPIYISFLSHNEAIEASSFILSNLEGKDIRKKQLEICNFLKLPVEDMLKRTTQCVFAETEGHHHHHH | not soluble |
| MSPSQDPSLENYRAIADGIATLFFPHAEVVLHDLRSQRVDYIANNLSKREVGDDSALEDMLEGDSDERNIGPYEKLNWDGQKIRSVSTVLRDSAGQPLAVLCINLNISLFESAKAALDLFLSPSKLIPQPDALFRDDWQERINTFLHGWLRQRQLGLNLLTREHKRELVLALHAEGAFKGKSAANYVANVLNMGRATVYKHLKELKEGGD | not soluble |
| MGYIEDMRNLVGNHPLILIGSHAIILNEKDEVLLQLRTDFNRWGIIGGALEYNETLEDALKREVFEETGLIIKNPELFRTYSGPDFFQIYPNGDQVHGVLVVYICREFHGELVCDHTESKELRFFSLDELPNNLPPVIEKIITDYLKK | not soluble |
| MSLPIRIDKKLPAVEILRTENIFVMDDQRAAHQDIRPLKILILNLMPQKMVTETQLLRHLANTPLQLDIDFLYMESHRSKTTRSEHMETFYKTFPEVKDEYFDGMIITGAPVEHLPFEEVDYWEEFRQMLEWSKTHVYSTLHICWGAQAGLYLRYGVEKYQMDSKLSGIYPQDTLKEGHLLFRGFDDSYVSPHSRHTEISKEEVLNKTNLEILSEGPQVGVSILASRDLREIYSFGHLEYDRDTLAKEYFRDRDAGFDPHIPENYFKDDDVNQVPCLCWSSSAALFFSNWVNHAVYQETPFDWRKIEDDASAYGYLEGHHHHHH | soluble |
| MTDERYGYIHASMLPTQCLCTKLRRAARSVSRFYDEALADTGLKVAQFSLLRHLRRLDRPSISELAEAMGLDRSTLGRNLRVLEGDGLLRLTGGEDQRNRLVELTPAGLDALERGTPAWEDAQRRLAGRLGEERSGALAALLAELERLD | not soluble |
| MISRTFLLLFFVFSISKCEVQLGCTSPPLPDANGLCPDGYTLITAGGCCPDSDVYIISATTTTTTTTQAPTTTASSGSCQDKVNPKTGVSDCPGMKAYCNNPAYVSVMKDQCPKTCGYCSSSATTAGTCQDKINPSTGRSDCPGMAAYCNNPVYHDVMKDQCPKTCGYC | not soluble |
| MGSDKIHHHHHHMECTSYLVDTFDQLPPINEESLADIDNDLFSGLYYGGVDTPTTRQLSQRVADLEKGKFAVLTPSGQSAFNLLLTTFVKPGDHVLAGDTIVYSTRWLLNHFENIGVKIEYFTPSEAATLKNKLTLKTKLIIFENPGAFTYEVMDISAIVESRHDHPALIVADNTWAASLFHHPLSLGADISLISMSKYHGAVEGISLGALITKRKDLYVNLKTTSALTGNHVSSHACSAAIRSISTLGARLSFQMSTTRKVLRSLKPLPLLKQAIHPILQNTELHLQNSMIYGFNSLFTAEFSCSRNELISRLNRLNLIKIGYGWGGTTSLVNLIDTHDMPSAKRLGINSECARIYLGLEDPDELTRDLTNAFTQ | not soluble |
| MESKAKTTVTFHSGILTIGGTVIEVAYKDAHIFFDFGTEFRPELDLPDDHIETLINNRLVPELKDLYDPRLGYEYHGAEDKDYQHTAVFLSHAHLDHSRMINYLDPAVPLYTLKETKMILNSLNRKGDFLIPSPFEEKNFTREMIGLNKNDVIKVGEISVEIVPVDHDAYGASALLIRTPDHFITYTGDLRLHGHNREETLAFCEKAKHTELLMMEGVSISFPEREPDPAQIAVVSEEDLVQHLVRLELENPNRQITFNGYPANVERFAKIIEKSPRTVVLEANMAALLLEVFGIEVRYYYAESGKIPELNPALEIPYDTLLKDKTDYLWQVVNQFDNLQEGSLYIHSDAQPLGDFDPQYRVFLDLLAKKDITFVRLACSGHAIPEDLDKIIALIEPQVLVPIHTLKPEKLENPYGERILPERGEQIVL | soluble |
| MAHHHHHHMSTFARRRIIQDLNKINKEKNKSFEASPFADNIMYCHAIIRGPDDTIWECGIFHLIIHFSEEYPVSPPKLRFLSKIYHPNIYSDGNICLDILQNQWSPIYDITSILTSIQSLLNDPNTSSPANPEAARIFINNRNLYNKRVLMCVEDSWEIPKFNINNYS | not soluble |
| MGSDKIHHHHHHMLAALKKYLLVPKLMRLSAGAPRDHHIAWDRFWSNVKTTGASGDVLWDSGSDHEMQGYVDRLRLHLDPGLPIVDIGCGNGSFTRQLAGHFPHAVGVDVSAHAVRRARAETAGLANISYAVADMTASGAGSGLLEELAVLDTGGQAGGGANVFIRGVLHVLGERDQHALAENARAITRANGRVFLAETNFRGNAVDYVTHLGATLRSIPAPLEGAIRGLPMPGRFGPKERSLAFPASRWELIEEGPTTIETMPLSNPARSDLIPGYFAVLEGRN | not soluble |
| MSLIIKGALVWSGKEFVQKDLFVENGEFVEKSSEPVIDAKGYFLVPGFVDSHAHVVGTGFSKLSVQFNDWDELFERDLTSEVVVGRGWFEEPDGSVVERLDRIEAPVFLIRRCGHKAFLNKKAMEVLGVEERYLVENLEKIYEYVFKEKIAEFYRVGEEEFLKHGVTFVQSDDLYGVSVERLLSIIKHSRIRLFEKLKPKDLKPEHFGDLNKRVHVKGVKVFMDGSLGAKTALISGEYDDGTQGVQLLTEEKLEELARFCDEHDLILNVHAIGDSAVSLVLDVLERHRGHRIIHAQFVQEKDLQRVKNTTFSVQPHFFFEDQPLLKKVKVNALHYPFYRMFKAGVSISFSSDSPVSPCDPKYIAEHALKMGFSREETFYLMTEAGASQVGIKTGKIEAGYRADFCLYERNPLLFEDDPIAVFVEGEKIYEKNGSSHEGHHHHHH | soluble |
| MPNIDNVFSIYAGQLELLRQNGLIERTGEYICPICLNSFNKEQLNKLSMEDAPQASLGGKKIAITCKKCNNTCGHETDIHLVNFITYLEEQEFLPGSNRRVKIFDDETTINANLEVGNTKELKMIIPNKINNPKALTNHLSKLTVGGIIDIQNHPLKIDMKKVSTAILKNAYIILFARFGYSFLLNSFYDRIREQILNPAKHIIPESLWTKQTSISVKDGIYFSNSNVYRGFFIIYSLTKLRTHHFCICIPTPQVYFEAIAYYFREYKAGIPIYMMGSDGIDYFQNIDNIKALNKWLVNWSLGSPV | not soluble |
| LDTTRESIRIGDNLGNVINDPISSREIETQNERDNDLINRYYRPDELEKVKVVDFKPIILNLDELDNDELIMALEEKPAYSRTGVLLSRIDNIRMRIAESAGRLKKDVVRSEESERPAFESERSSSPTTISFN | not soluble |
| LKRYIAGLACAATAVLSAPALASTAHAQAADPISALKSQFSSGRGVNFVDTTKTQGPQGNMVLAKRTGALQFGPSGISASDQTAQLRFKASDFEDLTEGEEDEDFSKFFRGLAKPERVVRIKNTTYVSGGVMGEFMPADKTWVRFPDGLLGFTGAMSQFVNVAEPATLKALLAHATKHGGTYSGKITFGELNKVSPWFRASLGAPTAKTAKIVVSWKLFLGSDRLAKRLVTTYSTAGSAESTVTVDTRYTGWGSKVTVKAPPADQVADLKDLEEGAETATSIPLLGN | soluble |
| MGSDKIHHHHHHMSSIYGADLRTVGERIKGERKRLGLSQTAFANLAGVGKTTQINYEKGTRNPDTEYLAALDSAGVDVYYVLTGRKSSGGSSDVQAPVEEPLDGYSPVPMYDIEAAAGAGRLIEHENIESTLYFQTQALSAEGLDPAHLIGAKVRGDSMGSTLQDGDRVIVDCSQRTPDGVFLLRVGEEYRIKRVQRVAGGAWLLISDNHAYEKEMIKPDEMQDVEILGRCRVRIGRVS | not soluble |
| MAMIKQILRLLFLLAMYELGKYVTEQVYIMMTANDDVEAPSDYVFRAEVSELEHHHHHH | not soluble |
| MAHHHHHHMENINRVNKYDNPNEAIKNMVDKIINKKEMMKYFLDAQDIFEYHDVGKKGEVDITLFPKMARQLKQVYDIRDINNFKKEMKIKKIYKMDLQLFFTLLKRKILYSINNSNNNENDNSSFRQHYDILDMKKKQLLDVDELRTYLGLMGDKINPDDFNILLRYNLINNHRINKDDIVLDENKEIKNISFNAYVDMLTCYKYI | not soluble |
| STQVSQATSQPINFQVQKDGSSEKSHMDDYMQHPGKVIKQNNKYYFQTVLNNASFWKEYKFYNANNQELATTVVNDNKKADTRTINVAVEPGYKSLTTKVHIVVPQINYNHRYTTHLEFEKAIPTLADAAK | not soluble |
